Test results: PMC9770967, “Native holdup (nHU) to measure binding affinities from cell extracts” (Science Advances, 2022)

Assays:
Format in all cases: binding, human
[1] = system: SNX27_PDZ; experiment: nHU-MS, SNX27_PDZ bait, total Jurkat extracts, series 1; settings: nHU-MS, total Jurkat extract
Experimental: (§1) The empty His6-AviTag-MBP-TEV vector was used to produce biotinylated MBP for control experiments. Proteins were coexpressed with BirA biotin ligase (PET21a-BirA, Addgene, no. 20857) in Escherichia coli BL21(DE3) cells. At isopropyl-β-D-thiogalactopyranoside (IPTG) induction (1 mM IPTG at 18°C overnight), 50 μM biotin was added to the media. Harvested cells were lysed in a buffer containing 50 mM tris (pH 7.5), 150 to 300 mM NaCl, 50 μM biotin, 2 mM β-mercaptoethanol, cOmplete EDTA-free protease inhibitor cocktail (Roche, Basel, Switzerland), 1% Triton X-100, and trace amount of deoxyribonuclease, ribonuclease, and lysozyme. Lysates were frozen at −20°C before further purification steps. Lysates were sonicated and centrifuged for clarification. Expressed proteins were captured on in-house prepacked Ni-IDA (Protino Ni-IDA Resin, Macherey-Nagel, Duren, Germany) columns and were washed with at least 10 column volumes of cold wash buffer [50 mM tris (pH 7.5), 150 mM NaCl, and 2 mM β-mercaptoethanol] before elution with 250 mM imidazole. The Ni elution was collected directly on a preequilibrated amylose column (amylose high flow resin, New England Biolabs, Ipswich, MA). Amylose column was washed with 5 column volumes of cold wash buffer before fractionated elution in a buffer containing 25 mM Hepes (pH 7.5), 150 mM NaCl, 1 mM TCEP, 10% glycerol, 5 mM maltose, and cOmplete EDTA-free protease inhibitor cocktail. The concentration of proteins was determined by their ultraviolet absorption at 280 nm before aliquots were snap-frozen in liquid nitrogen and stored at −80°C.
(§2) For saturating streptavidin resin with biotinylated peptides or biotin, 50 μl of streptavidin resin was mixed with biotin or peptide at 40 to 60 μM concentration in 6 to 6.5 resin volume for 60 min. To saturate streptavidin resin with biotinylated proteins, 50 μl of streptavidin resin (Streptavidin Sepharose High Performance, Cytiva) was mixed with biotinylated MBP or MBP-PDZ at 40 to 50 μM concentration in 20× resin volume for 60 min. After saturation, resins were washed a single time [10 resin volume, holdup buffer: 50 mM tris (pH 7.5), 300 mM NaCl, and 1 mM TCEP, 0.22-μm filtered] and were depleted with biotin (10 resin volume, 10 min, holdup buffer supplemented with 100 μM biotin). Last, resins were washed two times (10 resin volume, holdup buffer).
(§3) For single-point nHU experiments carried out at ~10 μM bait concentration, 50 μl of saturated streptavidin resin was mixed with 200 μl of cell lysate (2 mg/ml). Titration experiments were carried out by mixing control and bait-saturated resin and keeping the total resin volume constant; e.g., ~5 μM bait concentration can be achieved by mixing 25 μl of bait-saturated streptavidin resin with 25 μl of control resin and 200 μl of cell lysate (2 mg/ml). Control and bait-saturated resins were prepared in larger amounts, and a serial dilution was prepared with these presaturated resins to achieve different resin ratios.
Unless specified elswhere, the nHU mixture was incubated at 4°C for 2 hours. After the incubation ended, the resin was separated from the supernatant by a brief centrifugation (15 s, 2000 g). Then, half of the supernatant was removed by pipetting without any delay to avoid any resin contamination; e.g., 100 μl of supernatant is collected if 200 μl of cell lysate was used as analyte. Alternatively, the supernatant can be centrifuged an additional time to clarify it further, removing any possible resin contamination. In principle, the separation of the supernatant should be as fast as possible since any delay can perturb the equilibrium. […] Alternatively, the resin can be separated from the supernatant using filter plates (e.g., various products of Millipore, Burlington, MA) or spin columns (e.g., Pierce spin cups—cellulose acetate filter from Thermo Fisher Scientific, Waltham, MA) to achieve faster separation. […]

[2] = system: SNX27_PDZ; experiment: AP-MS control pull-down on leftover resin, SNX27_PDZ bait, total Jurkat extracts; settings: AP-MS control pull-down, total Jurkat extract
Experimental: Leftover beads from nHU-MS experiments were washed three times immediately after the separation of the supernatant [10 resin volume in buffer containing 50 mM tris (pH 8.5), 150 mM NaCl, 1% Triton X-100, 10× cOmplete EDTA-free protease inhibitor cocktail, 2 mM EDTA, and 1 mM TCEP]. Then, the beads were washed two times [10 resin volume buffer containing 50 mM tris (pH 8.5), 150 mM NaCl, and 1 mM TCEP]. Last, captured protein was eluted from the resin in two steps, and the eluted fractions were pooled. For each elution, the beads were incubated for 30 min with three resin volume buffer containing 20 mM tris (pH 8.5), 100 mM NaCl, 500 μM TCEP, and 8 M urea. Between each step, the beads were separated by mild centrifugation, and the supernatant was removed by gentle pipetting.
The nHU samples were precipitated with trichloroacetic acid (TCA) 20% overnight at 4°C and centrifuged at 14,000 rpm for 10 min at 4°C. The protein pellets were washed twice with 1 ml of cold acetone and air-dried. The protein extracts were solubilized in 8 M urea, reduced with 5 mM TCEP for 30 min, and alkylated with 10 mM iodoacetamide for 30 min in the dark. Double digestion was performed at 37°C with 500 ng of endoproteinase Lys-C (Wako, Richmond, USA) for 4 hours, followed by fourfold dilution and an overnight digestion with 500 ng of trypsin (Promega, Charbonnieres les Bains, France). Peptide mixtures were then desalted on a C18 spin-column and dried on a speed vacuum.
Samples were analyzed using an Ultimate 3000 nano-RSLC coupled in line via a nano-electrospray ionization source, with an LTQ-Orbitrap ELITE mass spectrometer (Thermo Fisher Scientific, San Jose, CA) or with the Orbitrap Exploris 480 mass spectrometer (Thermo Fisher Scientific, Bremen, Germany) equipped with a high field asymmetric ion mobility spectrometry (FAIMS) module. Peptide mixtures were injected in 0.1% trifluoroacetic acid on a C18 Acclaim PepMap100 trap column [75 μm inner diameter (ID) × 2 cm, 3 μm, 100 Å, Thermo Fisher Scientific] for 3 min at 5 μl/min with 2% acetonitrile (ACN) and 0.1% formic acid (FA) in H2O and then separated on a C18 Acclaim PepMap100 nano-column (75 μm ID × 50 cm, 2.6 μm, 150 Å, Thermo Fisher Scientific) at 300 nl/min and 40°C with a 90-min linear gradient from 5 to 30% buffer B (A: 0.1% FA in H2O/B: 80% ACN, 0.1% FA in H2O) and regeneration at 5% B. Spray voltage was set to 2.1 kV and heated capillary temperature was set to 280°C.
For the Orbitrap Elite, the mass spectrometer was operated in positive ionization mode in data-dependent mode with survey scans from mass/charge ratio (m/z) 350 to 1500 acquired in the Orbitrap at a resolution of 120,000 at m/z 400. The 20 most intense peaks from survey scans were selected for further fragmentation in the linear ion trap with an isolation window of 2.0 Da and were fragmented by collision-induced dissociation (CID) with a normalized collision energy of 35% (TOP 20 CID method). Unassigned and single-charged states were excluded from fragmentation. The ion target value for the survey scans (in the Orbitrap) and the MS2 mode (in the linear ion trap) were set to 1E6 and 5E3, respectively, and the maximum injection time was set to 100 ms for both scan modes. Dynamic exclusion was set to 20 s after one repeat count with mass width at ±10 parts per million (ppm).
Proteins were identified by database search using SequestHT (Thermo Fisher Scientific) with Proteome Discoverer 2.4 software (PD2.4, Thermo Fisher Scientific) on the human FASTA database downloaded from UniProt (reviewed, release 2021_06_03, 20380 entries, https://uniprot.org/, complemented with sequences of likely contaminants, such as MBP, streptavidin, or trypsin). Precursor and fragment mass tolerances were set at 7 ppm and 0.6 Da, respectively, and up to two missed cleavages were allowed. […]

[3] = biological target: full-length SNX27; experiment: nHU-MS, recombinant full-length SNX27 bait, total Jurkat extracts; settings: apparent, Fig. 4D, n = 6
Experimental: as §1, §2, §3
Unless specified elswhere, the nHU mixture was incubated at 4°C for 2 hours. After the incubation ended, the resin was separated from the supernatant by a brief centrifugation (15 s, 2000 g). Then, half of the supernatant was removed by pipetting without any delay to avoid any resin contamination; e.g., 100 μl of supernatant is collected if 200 μl of cell lysate was used as analyte. Alternatively, the supernatant can be centrifuged an additional time to clarify it further, removing any possible resin contamination. […]

pKapp_HU_not_filtered ([1]; SNX27 bait, not filtered for significance) | pKapp [3] | Molecule | Ratio_HU ([1]; SNX27/MBP, sheet "SNX27&Jurkat") | BI_HU ([1]; SNX27 bait vs MBP control, sheet "SNX27&Jurkat") | FC_HU ([1]; SNX27 vs MBP control, sheet "SNX27&Jurkat") | Ratio_AP ([2]; SNX27/MBP) | FC_AP ([2]; SNX27 vs MBP) | BINDER_AP ([2]; BINDS / DOES NOT BIND)
4.758 |  | ZC3HAV1 (protein, UniProt Q7Z2W4 2-902, looked up) Zinc finger CCCH-type …: ADPEVCCFITKILCAHGGRMALDALLQEIALSEPQLCEVLQVAGPDRFVVLETGGEAGITRSVVATTRARVCRRKYCQRPCDNLHLCKLNLLGRCNYSQSERNLCKYSHEVLSEENFKVLKNHELSGLNKEELAVLLLQSDPFFMPEICKSYKGEGRQQICNQQPPCSRLHICDHFTRGNCRFPNCLRSHNLMDRKVLAIMREHGLNPDVVQNIQDICNSKHMQKNPPGPRAPSSHRRNMAYRARSKSRDRFFQGSQEFLASASASAERSCTPSPDQISHRASLEDAPVDDLTRKFTYLGSQDRARPPSGSSKATDLGGTSQAGTSQRFLENGSQEDLLHGNPGSTYLASNSTSAPNWKSLTSWTNDQGARRKTVFSPTLPAARSSLGSLQTPEAVTTRKGTGLLSSDYRIINGKSGTQDIQPGPLFNNNADGVATDITSTRSLNYKSTSSGHREISSPRIQDAGPASRDVQATGRIADDADPRVALVNDSLSDVTSTTSSRVDDHDSEEICLDHLCKGCPLNGSCSKVHFHLPYRWQMLIGKTWTDFEHMETIEKGYCNPGIHLCSVGSYTINFRVMSCDSFPIRRLSTPSSVTKPANSVFTTKWIWYWKNESGTWIQYGEEKDKRKNSNVDSSYLESLYQSCPRGVVPFQAGSRNYELSFQGMIQTNIASKTQKDVIRRPTFVPQWYVQQMKRGPDHQPAKTSSVSLTATFRPQEDFCFLSSKKYKLSEIHHLHPEYVRVSEHFKASMKNFKIEKIKKIENSELLDKFTWKKSQMKEEGKLLFYATSRAYVESICSNNFDSFLHETHENKYGKGIYFAKDAIYSHKNCPYDAKNVVMFVAQVLVGKFTEGNITYTSPPPQFDSCVDTRSNPSVFVIFQKDQVYPQYVIEYTEDKACVIS | 0.6368 | 0.3632 | -0.651 | 128.984 | 7.011 | BINDS
 | 5.04 | SNX2: component of the SNX-BAR complex (protein, UniProt O60749 1-519, looked up) Sorting nexin-2: MAAEREPPPLGDGKPTDFEDLEDGEDLFTSTVSTLESSPSSPEPASLPAEDISANSNGPKPTEVVLDDDREDLFAEATEEVSLDSPEREPILSSEPSPAVTPVTPTTLIAPRIESKSMSAPVIFDRSREEIEEEANGDIFDIEIGVSDPEKVGDGMNAYMAYRVTTKTSLSMFSKSEFSVKRRFSDFLGLHSKLASKYLHVGYIVPPAPEKSIVGMTKVKVGKEDSSSTEFVEKRRAALERYLQRTVKHPTLLQDPDLRQFLESSELPRAVNTQALSGAGILRMVNKAADAVNKMTIKMNESDAWFEEKQQQFENLDQQLRKLHVSVEALVCHRKELSANTAAFAKSAAMLGNSEDHTALSRALSQLAEVEEKIDQLHQEQAFADFYMFSELLSDYIRLIAAVKGVFDHRMKCWQKWEDAQITLLKKREAEAKMMVANKPDKIQQAKNEIREWEAKVQQGERDFEQISKTIRKEVGRFEKERVKDFKTVIIKYLESLVQTQQQLIKYWEAFLPEAKAIA |  |  |  |  |  | 
 | 5.23 | SNX5: component of the SNX-BAR complex (protein, UniProt Q9Y5X3 2-404, looked up) Sorting nexin-5: AAVPELLQQQEEDRSKLRSVSVDLNVDPSLQIDIPDALSERDKVKFTVHTKTTLPTFQSPEFSVTRQHEDFVWLHDTLIETTDYAGLIIPPAPTKPDFDGPREKMQKLGEGEGSMTKEEFAKMKQELEAEYLAVFKKTVSSHEVFLQRLSSHPVLSKDRNFHVFLEYDQDLSVRRKNTKEMFGGFFKSVVKSADEVLFTGVKEVDDFFEQEKNFLINYYNRIKDSCVKADKMTRSHKNVADDYIHTAACLHSLALEEPTVIKKYLLKVAELFEKLRKVEGRVSSDEDLKLTELLRYYMLNIEAAKDLLYRRTKALIDYENSNKALDKARLKSKDVKLAEAHQQECCQKFEQLSESAKEELINFKRKRVAAFRKNLIEMSELEIKHARNNVSLLQSCIDLFKNN |  |  |  |  |  | 
